Key:
[1] = target: the molecule itself; assay: pulsed field gradient NMR diffusion; Ca2+-bound: same sample after addition of Ca2+ to 9 mM, 287 K; one and two components fitted for WT
[2] = target: T1, S100A4Δ13 (C-terminal deletion mutant, residues 1-88) (human, UniProt P26447 1-88); assay: ITC; 75 µM S100A4Δ13 in the cell titrated with MPT at 25°C (298 K) in the presence of 1 mM CaCl2; settings: both partners purified
T1 construct: human S100A4, residues 1-88 (F89-K101 deleted); also called Δ13 mutant; Δ13 S100A4
T1 sequence (P26447 1-88, stated change not applied): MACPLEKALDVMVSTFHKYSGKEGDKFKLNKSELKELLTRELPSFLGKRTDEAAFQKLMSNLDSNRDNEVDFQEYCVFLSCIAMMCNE

Kd [2] [nM] | Binder | stoichiometry N [1]
 | S100A4 C-terminal deletion mutant (residues 1-88, Δ13) (domain or fragment, also called Δ13 mutant; S100A4Δ13) not shown | 2
14.7 | YRKLQRELEDATETADAMNREVSSLKNKLRRGDLPFVVPRRMARK (extra N-terminal tyrosine, printed as 'Tyr-Arg1894-Lys1937'; non-muscle myosin IIA (NMIIA) heavy chain, residues Arg1894-Lys1937; also called MPT peptide; myosin IIA fragment; not shown: His10, N-terminal, cleaved; ubiquitin, N-terminal, cleaved) [NMIIA fragment MPT (Tyr-Arg1894-Lys1937)] | 
